Type in all cases: cell-based, human
Assay [1] concerns Sp1-sensitive promoter. Kind of assay: Luciferase assay of Sp1-sensitive promoter (pGAGC6) in transfected lung fibroblasts. To be noted: pGAGC6-transfected primary lung fibroblasts. The procedure: FIG. 16. Stimulation with PARC increases Sp1 promoter-stimulating activity in cultured primary lung fibroblasts. Luciferase activity was measured in a chemiluminescence-based assay in cell lysates from the following fibroblast cultures: mock-transfected non-stimulated (Medium), pGAM-transfected non-stimulated (pGAM Ctrl), pGAM-transfected PARC-stimulated (PGAM PARC), pGAGC6-transfected non-stimulated (pGAGC6 Ctrl), and pGAGC6-transfected PARC-stimulated (pGAGC6 PARC).

In assay [2] the test system is TGF-β1 mRNA. The experiment in a line: Real-time PCR for TGF-β mRNA. To be noted: LF1 and LF4, 300 ng/ml rhPARC. The procedure: Real-time PCR Quantification of Steady-State mRNA Levels. Total RNA was purified from fibroblast cultures using Trizol reagent (Invitrogen, Carlsbad, Calif.) following the manufacturer's recommendations. First-strand cDNA was synthesized in a 20-μl reaction mixture containing 1 μg of total RNA, 50 mM Tris HCl (pH 8.3), 75 mM KCl, 3 mM MgCl2, 0.5 mM of each dNTP, 1 μM of random hexamer primers, and 400 units of Moloney murine leukemia virus RT (Invitrogen). The reaction mixture was incubated at 37° C. for 60 minutes, then heated at 95° C. for 5 minutes. Real-time PCR was performed on a LightCycler system (Roche, Indianapolis, Ind.). The primers, PCR protocol, and product quantification for the internal control 18S ribosomal RNA were exactly as reported previously (Schmittgen T D et al.). All other primers and hybridization probes were designed and prepared by TIB Molbiol (Adelphia, N.J.). […] The following PCR conditions were used: activation at 95° C. for 10 min, followed by 35 cycles of denaturation at 95° C. for 3 s, primer annealing at 50° C. for 5 s, fluorescence readout (F12/F11) at 50° C., and extension at 72° C. for 15 s. Fold difference in gene expression relative to 18S rRNA between treated and untreated cultures was calculated using the 2-ΔΔCT method (Livak K J et al.).
In general terms: In qPCR the cycle at which signal appears reflects the starting amount.

The test system of assay [3] is lung and dermal fibroblast lines. Kind of assay: CellTiter AQueous 96 fibroblast proliferation assay. To be noted: for maximum increase in fibroblast proliferation over non-stimulated control: Days 7 and 8, rhPARC 1-3,000 ng/ml. The procedure:
Cell Proliferation Assays. For CellTiter AQueous 96 Non-Radioactive Cell Proliferation Assay (Promega, Madison, Wis.), fibroblasts were plated in low-serum medium at 2×10^3 cells/well in 96-well flat-bottom tissue culture plates (Costar) in 0.2-ml cultures and stimulated with increasing concentrations of rhPARC in quadruplicates. Low-serum tissue culture medium alone was the negative control. The Cell-Titer proliferation assay was performed according to the manufacturer's instructions, after the fibroblasts were incubated with test substances for 3-8 d. Data were expressed as mean OD490±SD of quadruplicate cultures and analyzed using one-way ANOVA with post hoc testing.

Assay [4] concerns Smad3. Kind of assay: Smad3 immunoprecipitation and phosphorylation Western blot. To be noted: fibroblasts activated with cytokine. The method, then: To determine if PARC stimulated phosphorylation of Sp1 and Smad3, these factors were immunoprecipitated from lysates of fibroblasts that had been activated with recombinant human PARC for up to 24 hours, and the levels of their phosphorylation were tested in Western blotting assays using anti-phosphoserine and anti-phospho-Smad2/3 antibodies. Equal loading was controlled by stripping the membranes and re-developing them with anti-Sp1, anti-Smad3 and anti-Smad2/3 antibodies (FIG. 17).
Preparation of fibroblast lysates, immunoprecipitation of Sp1 and Smad2/3, normalization of protein concentration in the samples with BioRad assays, electrophoretic separation, Western blotting, membrane stripping and re-development with different antibodies were performed as described in Atamas et al. (Am. J. Respir. Cell. Mol., 29:743-749 (2003); J. Immunol. 168: 1139-1145 (2002); and Arthritis Rheum., 42:1168-1178 (1999)), which are hereby incorporated by reference. Rabbit antibodies for total Smad2/3 and Sp1 were from Upstate (Waltham, Masss.). Antiphospho-Smad2/3 antibody and goat antibody for total Smad3 were from Santa Cruz Biotechnology (Santa Cruz, Calif.), as was anti-gp130 antibody used to confirm equal loading of the samples. Antiphosphoserine antibody was from Biomol (Plymouth Meeting, Pa.).

The test system of assay [5] is Smad3/4. Kind of assay: EMSA of nuclear lysates with Smad3/4 probe.

Entries after “also recorded” stand apart in the source; their conditions may differ.

B1: rhPARC: Recombinant human pulmonary and activation-regulated chemokine (CC chemokine CCL18), purchased from R&D Systems and Cell Sciences (protein)
chain: AQVGTNKELCCLVYTSWQIPQKFIVDYSETSPQCPKPGVILLTKRGRQICADPNKKWVQKYISDLKLNA
Turning to B1, the “Sp1 promoter-stimulating activity (luciferase)” value in assay [1] is on record as “leads to activation of the Sp1-sensitive promoter”. In assay [2], the “steady-state levels of TGF-β mRNAs, treated versus control” value is on record as “no difference in TGF-β1 mRNA levels”. For the same molecule, the “maximum increase in fibroblast proliferation over non-stimulated control” value in assay [3] (dermal lines) is recorded as 45-50%; in assay [3] (lung lines), 20-25%. In addition, the “increase in fibroblast proliferation” value in assay [3] (summary statement) is recorded as 25-50%. Further, in assay [4], the “phosphorylation of immunoprecipitated Smad3” value is “No changes in phosphorylation”. Further, the “density of the specific Smad3 band relative to the density at time 0” value in assay [5] (LF1, LF2, LF4, rhPARC-stimulated samples) was 0.9-1.2 fold. For the same molecule, in assay [5] (after activation with PARC), the “DNA-binding activity of Smad3/4 (EMSA)” value was “No increase; also recorded: but not Smad3/4”.

Source of the values: patent publication US20060009452A1, “Therapeutic targeting of PARC/CCL18 and its signaling in pulmonary fibrosis” (priority 2004, published 2006).
